# Measurements as given in the supplement of paper PMC10567573.
# B1: MYL5 (parent)
# chain: DVAGNLDYKALSYVITHGEEKEE
# B2: PDZK1 (parent)
# chain: FQAKKIPIVSSLADPLDTPPDSKE
# Variants of: B1
# Test: protein stability index of a GFP-peptide fusion (GPS, HEK-293T) (PSI 1-6); higher = more stable
# Conditions: c terminus: native
# 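Note: lentivirally expressed fusions sorted by FACS into six bins by GFP to DsRed ratio, PSI derived from sequencing read proportions per bin multiplied by bin number.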
row,Variant,protein stability index
1,DVAGNLDYKALSYVITHGEEKES,3.81
2,DVAGNLDYKALSYVITHGEEKEV,2.5
3,DVAGNLDYKALSYVITHGEEKEC,4.24
4,DVAGNLDYKALSYVITHGEEKED,4.94
5,DVAGNLDYKALSYVITHGEEKEN,4.99
6,DVAGNLDYKALSYVITHGEEKEA,4.11
7,DVAGNLDYKALSYVPTHGEEKEE,2.16
8,DVAGNLDYKALSYVATHGEEKEE,2.1
9,DVAGNLDYKALSYVQTHGEEKEE,2.17
10,DVAGNLDYKALSYVFTHGEEKEE,2.49
11,DVAGNLDYKALSYVMTHGEEKEE,1.82
12,DVAGNLDYKALSYVTTHGEEKEE,2.81
13,DVAGNLDYKALSYVDTHGEEKEE,2.31
14,DVAGNLDYKALSYVHTHGEEKEE,3.3
15,DVAGNLDYKALSYVLTHGEEKEE,1.89
16,DVAGNLDYKALSYVRTHGEEKEE,2.73
17,DVAGNLDYKALSYVNTHGEEKEE,2.63
18,DVAGNLDYKALSYVYTHGEEKEE,3.01
19,DVAGNLDYKALSYVKTHGEEKEE,2.19
20,DVAGNLDYKALSYVVTHGEEKEE,2.59
21,DVAGNLDYKALSYVETHGEEKEE,3.02
22,DVAGNLDYKALSYVGTHGEEKEE,2.31
23,DVAGNLDYKALSYVCTHGEEKEE,2.95

row,Variant,protein stability index
1,DVAGNLDYKALSYEITHGEEKEE,2.51
2,DVAGNLDYKALSYKITHGEEKEE,2.5
3,DVAGNLDYKALSYCITHGEEKEE,2.07
4,DVAGNLDYKALSYPITHGEEKEE,2.48
5,DVAGNLDYKALSYDITHGEEKEE,2.97
6,DVAGNLDYKALSYTITHGEEKEE,2.14
7,DVAGNLDYKALSYSITHGEEKEE,2.31
8,DVAGNLDYKALSYNITHGEEKEE,3.53
9,DVAGNLDYKALSYRITHGEEKEE,1.31
10,DVAGNLDYKALSYMITHGEEKEE,1.24
11,DVAGNLDYKALSYFITHGEEKEE,2.25
12,DVAGNLDYKALSYGITHGEEKEE,2.28
13,DVAGNLDYKALSYIITHGEEKEE,3.02
14,DVAGNLDYKALSYVITHGEEVEE,1.54
15,DVAGNLDYKALSYVITHGEEMEE,1.98
16,DVAGNLDYKALSYVITHGEEYEE,1.79
17,DVAGNLDYKALSYVITHGEEHEE,1.6
18,DVAGNLDYKALSYVITHGEEPEE,1.72
19,DVAGNLDYKALSYVITHGEEQEE,4.06
20,DVAGNLDYKALSYVITHGEESEE,1.52
21,DVAGNLDYKALSYVITHGEEDEE,4.35
22,DVAGNLDYKALSYVITHGEEFEE,1.37
23,DVAGNLDYKALSYVITHGEEWEE,1.95

row,Variant,protein stability index
1,DVAGNLDYKALSYVITHGEEGEE,3.52
2,DVAGNLDYKALSYVITHGEEEEE,3.8
3,DVAGNLDYKALSYVITHGEETEE,2.05
4,DVAGNLDYKALSYVITHGEECEE,2.53
5,DVAGNLDYKALSYVITHGEEAEE,2.46
6,DVAGNLDYKALSYVITGGEEKEE,2.4
7,DVAGNLDYKALSYVITPGEEKEE,1.83
8,DVAGNLDYKALSYVITAGEEKEE,1.39
9,DVAGNLDYKALSYVITNGEEKEE,3.23
10,DVAGNLDYKALSYVITMGEEKEE,1.64
11,DVAGNLDYKALSYVITTGEEKEE,2.12
12,DVAGNLDYKALSYVITSGEEKEE,3.05
13,DVAGNLDYKALSYVITLGEEKEE,2.23
14,DVAGNLDYKALSYVITWGEEKEE,1.79
15,DVAGNLDYKALSYVITKGEEKEE,1.79
16,DVAGNLDYKALSYVITQGEEKEE,1.96
17,DVAGNLDYKALSYVITCGEEKEE,1.67
18,DVAGNLDYKALSYVITRGEEKEE,2.25
19,DVAGNLDYKALSYVITDGEEKEE,2.89
20,DVAGNLDYKALSYVITEGEEKEE,2.25
21,DVAGNLDYKALSYVITHGFEKEE,3.04
22,DVAGNLDYKALSYVITHGNEKEE,3.3
23,DVAGNLDYKALSYVITHGKEKEE,3.27

row,Variant,protein stability index
1,DVAGNLDYKALSYVITHGLEKEE,2.9
2,DVAGNLDYKALSYVITHGIEKEE,2.19
3,DVAGNLDYKALSYVITHGTEKEE,3.2
4,DVAGNLDYKALSYVITHGMEKEE,1.08
5,DVAGNLDYKALSYVITHGDEKEE,2.23
6,DVAGNLDYKALSYVITHREEKEE,2.43
7,DVAGNLDYKALSYVITHAEEKEE,1.45
8,DVAGNLDYKALSYVITHMEEKEE,2.07
9,DVAGNLDYKALSYVITHQEEKEE,1.94
10,DVAGNLDYKALSYVITHHEEKEE,1.7
11,DVAGNLDYKALSYVITHIEEKEE,2.42
12,DVAGNLDYKALSYVITHLEEKEE,1.69
13,DVAGNLDYKALSYVITHNEEKEE,2.11
14,DVAGNLDYKALSYVITHEEEKEE,2.1
15,DVAGNLDYKALSYVITHSEEKEE,1.49
16,DVAGNLDYKALSYVITHCEEKEE,1.68
17,DVAGNLDYKALSYVITHPEEKEE,1.12
18,DVAGNLDYKALSYVITHDEEKEE,2.61
19,DVAGNLDYKALSYVITHFEEKEE,1.88
20,DVAGNLDYKALSYVITHTEEKEE,1.78

# Variants of: B2
# Test: as above
# Conditions: c terminus: a fixed tail appended
row,Variant,protein stability index
1,FQAKKIPIVSVLADPLDTPPDSKE,3.38
2,FQAKKIPIVSSYADPLDTPPDSKE,3.75
3,FQAKKIPIVSSLARPLDTPPDSKE,3.81
4,FQAKKIPIVSSLAEPLDTPPDSKE,3.65
5,FQAKKIPIVSSLAMPLDTPPDSKE,3.55
6,FQAKKIPIVSSLAQPLDTPPDSKE,3.86
7,FQAKKIPIVSSLAKPLDTPPDSKE,3.65
8,FQAKKIPIVSSLALPLDTPPDSKE,3.5
